± gives the uncertainty stated by the source.
B1: Ankyrin-3, residues 4094 to 4171; numbered along this chain, Q12955 (parent)
chain: MAIVADHLGLSWTELARELNFSVDEINQIRVENPNSLISQSFMLLKKWVTRDGKNATTDALTSVLTKINRIDIVTLLE

Variants of: B1
Assay: abundance fitness (aPCA) (normalised: wild type 0, dead -1); higher = more abundant; growth selection in yeast, the domain comes from the species named
Settings: Homo sapiens

| Variant | abundance fitness |
| --- | --- |
| MAIVADHLGLSWTELARELNFSVSEINQIRVENPNSLISQSFMLLKKWVTRDGKNATTDALTSVLTKINRIDIVTLLE | -0.199 ± 0.055 |
| MAIVADHLGLSWTELARELNFSVMEINQIRVENPNSLISQSFMLLKKWVTRDGKNATTDALTSVLTKINRIDIVTLLE | -0.424 ± 0.096 |
| MAIVADHLGLSWTELARELNFSVHEINQIRVENPNSLISQSFMLLKKWVTRDGKNATTDALTSVLTKINRIDIVTLLE | -0.068 ± 0.087 |
| MAIVADHLGLSWTELARELNFSVLEINQIRVENPNSLISQSFMLLKKWVTRDGKNATTDALTSVLTKINRIDIVTLLE | -0.272 ± 0.063 |
| MAIVADHLGLSWTELARELNFSVIEINQIRVENPNSLISQSFMLLKKWVTRDGKNATTDALTSVLTKINRIDIVTLLE | -0.4 ± 0.19 |
| MAIVADHLGLSWTELARELNFSVNEINQIRVENPNSLISQSFMLLKKWVTRDGKNATTDALTSVLTKINRIDIVTLLE | -0.197 ± 0.2 |
| MAIVADHLGLSWTELARELNFSVEEINQIRVENPNSLISQSFMLLKKWVTRDGKNATTDALTSVLTKINRIDIVTLLE | 0.053 ± 0.11 |
| MAIVADHLGLSWTELARELNFSVVEINQIRVENPNSLISQSFMLLKKWVTRDGKNATTDALTSVLTKINRIDIVTLLE | -0.341 ± 0.069 |
| MAIVADHLGLSWTELARELNFSVFEINQIRVENPNSLISQSFMLLKKWVTRDGKNATTDALTSVLTKINRIDIVTLLE | -0.621 ± 0.21 |
| MAIVADHLGLSWTELARELNFSVTEINQIRVENPNSLISQSFMLLKKWVTRDGKNATTDALTSVLTKINRIDIVTLLE | -0.152 ± 0.12 |
| MAIVADHLGLSWTELARELNFSVCEINQIRVENPNSLISQSFMLLKKWVTRDGKNATTDALTSVLTKINRIDIVTLLE | -0.342 ± 0.098 |
| MAIVADHLGLSWTELARELNFSVYEINQIRVENPNSLISQSFMLLKKWVTRDGKNATTDALTSVLTKINRIDIVTLLE | -0.228 ± 0.14 |
| MAIVADHLGLSWTELARELNFSVPEINQIRVENPNSLISQSFMLLKKWVTRDGKNATTDALTSVLTKINRIDIVTLLE | -0.352 ± 0.086 |
| MAIVADHLGLSWTELARELNFSVWEINQIRVENPNSLISQSFMLLKKWVTRDGKNATTDALTSVLTKINRIDIVTLLE | -0.435 ± 0.077 |
| MAIVADHLGLSWTELARELNFSVKEINQIRVENPNSLISQSFMLLKKWVTRDGKNATTDALTSVLTKINRIDIVTLLE | -0.195 ± 0.087 |
| MAIVADHLGLSWTELARELNFSVQEINQIRVENPNSLISQSFMLLKKWVTRDGKNATTDALTSVLTKINRIDIVTLLE | 0.063 ± 0.069 |
| MAIVADHLGLSWTELARELNFSYDEINQIRVENPNSLISQSFMLLKKWVTRDGKNATTDALTSVLTKINRIDIVTLLE | -0.534 ± 0.27 |
| MAIVADHLGLSWTELARELNFSSDEINQIRVENPNSLISQSFMLLKKWVTRDGKNATTDALTSVLTKINRIDIVTLLE | -0.061 ± 0.048 |
| MAIVADHLGLSWTELARELNFSWDEINQIRVENPNSLISQSFMLLKKWVTRDGKNATTDALTSVLTKINRIDIVTLLE | -0.049 ± 0.073 |
| MAIVADHLGLSWTELARELNFSTDEINQIRVENPNSLISQSFMLLKKWVTRDGKNATTDALTSVLTKINRIDIVTLLE | -0.023 ± 0.053 |
| MAIVADHLGLSWTELARELNFSVDEIKQIRVENPNSLISQSFMLLKKWVTRDGKNATTDALTSVLTKINRIDIVTLLE | -0.112 ± 0.11 |
| MAIVADHLGLSWTELARELNFSVDEISQIRVENPNSLISQSFMLLKKWVTRDGKNATTDALTSVLTKINRIDIVTLLE | -0.125 ± 0.06 |
| MAIVADHLGLSWTELARELNFSVDEIVQIRVENPNSLISQSFMLLKKWVTRDGKNATTDALTSVLTKINRIDIVTLLE | -0.373 ± 0.065 |
| MAIVADHLGLSWTELARELNFSVDEIRQIRVENPNSLISQSFMLLKKWVTRDGKNATTDALTSVLTKINRIDIVTLLE | -0.11 ± 0.044 |

| Variant | abundance fitness |
| --- | --- |
| MAIVADHLGLSWTELARELNFSVDEICQIRVENPNSLISQSFMLLKKWVTRDGKNATTDALTSVLTKINRIDIVTLLE | -0.238 ± 0.099 |
| MAIVADHLGLSWTELARELNFSVDEIFQIRVENPNSLISQSFMLLKKWVTRDGKNATTDALTSVLTKINRIDIVTLLE | -0.244 ± 0.08 |
| MAIVADHLGLSWTELARELNFSVDEIQQIRVENPNSLISQSFMLLKKWVTRDGKNATTDALTSVLTKINRIDIVTLLE | 0.012 ± 0.085 |
| MAIVADHLGLSWTELARELNFSVDEIWQIRVENPNSLISQSFMLLKKWVTRDGKNATTDALTSVLTKINRIDIVTLLE | -0.35 ± 0.097 |
| MAIVADHLGLSWTELARELNFSVDEITQIRVENPNSLISQSFMLLKKWVTRDGKNATTDALTSVLTKINRIDIVTLLE | -0.174 ± 0.075 |
| MAIVADHLGLSWTELARELNFSVDEIEQIRVENPNSLISQSFMLLKKWVTRDGKNATTDALTSVLTKINRIDIVTLLE | -0.191 ± 0.13 |
| MAIVADHLGLSWTELARELNFSVDEIPQIRVENPNSLISQSFMLLKKWVTRDGKNATTDALTSVLTKINRIDIVTLLE | -0.926 ± 0.39 |
| MAIVADHLGLSWTELARELNFSVDEIDQIRVENPNSLISQSFMLLKKWVTRDGKNATTDALTSVLTKINRIDIVTLLE | -0.272 ± 0.12 |
| MAIVADHLGLSWTELARELNFSVDEILQIRVENPNSLISQSFMLLKKWVTRDGKNATTDALTSVLTKINRIDIVTLLE | -0.383 ± 0.054 |
| MAIVADHLGLSWTELARELNFSVDEIAQIRVENPNSLISQSFMLLKKWVTRDGKNATTDALTSVLTKINRIDIVTLLE | -0.082 ± 0.067 |
| MAIVADHLGLSWTELARELNFSVDEIGQIRVENPNSLISQSFMLLKKWVTRDGKNATTDALTSVLTKINRIDIVTLLE | -0.798 ± 0.1 |
| MAIVADHLGLSWTELARELNFSVDEIYQIRVENPNSLISQSFMLLKKWVTRDGKNATTDALTSVLTKINRIDIVTLLE | -0.149 ± 0.14 |
| MAIVADHLGLSWTELARELNFSVDEIHQIRVENPNSLISQSFMLLKKWVTRDGKNATTDALTSVLTKINRIDIVTLLE | -0.06 ± 0.12 |
| MAIVADHLGLSWTELARELNFSVDEINDIRVENPNSLISQSFMLLKKWVTRDGKNATTDALTSVLTKINRIDIVTLLE | 0.044 ± 0.21 |
| MAIVADHLGLSWTELARELNFSVDEINCIRVENPNSLISQSFMLLKKWVTRDGKNATTDALTSVLTKINRIDIVTLLE | -0.318 ± 0.19 |
| MAIVADHLGLSWTELARELNFSVDEINAIRVENPNSLISQSFMLLKKWVTRDGKNATTDALTSVLTKINRIDIVTLLE | 0.044 ± 0.054 |
| MAIVADHLGLSWTELARELNFSVDDINQIRVENPNSLISQSFMLLKKWVTRDGKNATTDALTSVLTKINRIDIVTLLE | 0.03 ± 0.11 |
| MAIVADHLGLSWTELARELNFSVDWINQIRVENPNSLISQSFMLLKKWVTRDGKNATTDALTSVLTKINRIDIVTLLE | -0.887 ± 0.19 |
| MAIVADHLGLSWTELARELNFSVDGINQIRVENPNSLISQSFMLLKKWVTRDGKNATTDALTSVLTKINRIDIVTLLE | -0.826 ± 0.14 |
| MAIVADHLGLSWTELARELNFSVDIINQIRVENPNSLISQSFMLLKKWVTRDGKNATTDALTSVLTKINRIDIVTLLE | -0.754 ± 0.27 |
| MAIVADHLGLSWTELARELNFSVDAINQIRVENPNSLISQSFMLLKKWVTRDGKNATTDALTSVLTKINRIDIVTLLE | -0.457 ± 0.097 |
| MAIVADHLGLSWTELARELNFSVDMINQIRVENPNSLISQSFMLLKKWVTRDGKNATTDALTSVLTKINRIDIVTLLE | -0.739 ± 0.19 |
| MAIVADHLGLSWTELARELNFSVDYINQIRVENPNSLISQSFMLLKKWVTRDGKNATTDALTSVLTKINRIDIVTLLE | -0.792 ± 0.2 |
| MAIVADHLGLSWTELARELNFSVDPINQIRVENPNSLISQSFMLLKKWVTRDGKNATTDALTSVLTKINRIDIVTLLE | -0.957 ± 0.13 |

| Variant | abundance fitness |
| --- | --- |
| MAIVADHLGLSWTELARELNFSVDRINQIRVENPNSLISQSFMLLKKWVTRDGKNATTDALTSVLTKINRIDIVTLLE | -0.947 ± 0.14 |
| MAIVADHLGLSWTELARELNFSVDLINQIRVENPNSLISQSFMLLKKWVTRDGKNATTDALTSVLTKINRIDIVTLLE | -0.862 ± 0.12 |
| MAIVADHLGLSWTELARELNFSVDKINQIRVENPNSLISQSFMLLKKWVTRDGKNATTDALTSVLTKINRIDIVTLLE | -0.808 ± 0.2 |
| MAIVADHLGLSWTELARELNFSVDTINQIRVENPNSLISQSFMLLKKWVTRDGKNATTDALTSVLTKINRIDIVTLLE | -0.334 ± 0.091 |
| MAIVADHLGLSWTELARELNFSVDVINQIRVENPNSLISQSFMLLKKWVTRDGKNATTDALTSVLTKINRIDIVTLLE | -0.344 ± 0.072 |
| MAIVADHLGLSWTELARELNFSVDQINQIRVENPNSLISQSFMLLKKWVTRDGKNATTDALTSVLTKINRIDIVTLLE | -0.251 ± 0.045 |
| MAIVADHLGLSWTELARELNFSVDHINQIRVENPNSLISQSFMLLKKWVTRDGKNATTDALTSVLTKINRIDIVTLLE | -0.859 ± 0.23 |
| MAIVADHLGLSWTELARELNFSVDFINQIRVENPNSLISQSFMLLKKWVTRDGKNATTDALTSVLTKINRIDIVTLLE | -0.771 ± 0.17 |
| MAIVADHLGLSWTELARELNFSVDNINQIRVENPNSLISQSFMLLKKWVTRDGKNATTDALTSVLTKINRIDIVTLLE | -0.63 ± 0.28 |
| MAIVADHLGLSWTELARELNFSVDERNQIRVENPNSLISQSFMLLKKWVTRDGKNATTDALTSVLTKINRIDIVTLLE | -0.522 ± 0.11 |
| MAIVADHLGLSWTELARELNFSVDEVNQIRVENPNSLISQSFMLLKKWVTRDGKNATTDALTSVLTKINRIDIVTLLE | -0.076 ± 0.074 |
| MAIVADHLGLSWTELARELNFSVDEWNQIRVENPNSLISQSFMLLKKWVTRDGKNATTDALTSVLTKINRIDIVTLLE | -0.871 ± 0.16 |
| MAIVADHLGLSWTELARELNFSVDEMNQIRVENPNSLISQSFMLLKKWVTRDGKNATTDALTSVLTKINRIDIVTLLE | -0.544 ± 0.14 |
| MAIVADHLGLSWTELARELNFSVDEQNQIRVENPNSLISQSFMLLKKWVTRDGKNATTDALTSVLTKINRIDIVTLLE | -0.594 ± 0.12 |
| MAIVADHLGLSWTELARELNFSVDECNQIRVENPNSLISQSFMLLKKWVTRDGKNATTDALTSVLTKINRIDIVTLLE | -0.561 ± 0.14 |
| MAIVADHLGLSWTELARELNFSVDEKNQIRVENPNSLISQSFMLLKKWVTRDGKNATTDALTSVLTKINRIDIVTLLE | -0.953 ± 0.26 |
| MAIVADHLGLSWTELARELNFSVDEPNQIRVENPNSLISQSFMLLKKWVTRDGKNATTDALTSVLTKINRIDIVTLLE | -0.894 ± 0.14 |
| MAIVADHLGLSWTELARELNFSVDESNQIRVENPNSLISQSFMLLKKWVTRDGKNATTDALTSVLTKINRIDIVTLLE | -0.805 ± 0.17 |
| MAIVADHLGLSWTELARELNFSVDELNQIRVENPNSLISQSFMLLKKWVTRDGKNATTDALTSVLTKINRIDIVTLLE | -0.96 ± 0.15 |
| MAIVADHLGLSWTELARELNFSVDEENQIRVENPNSLISQSFMLLKKWVTRDGKNATTDALTSVLTKINRIDIVTLLE | -0.848 ± 0.17 |
| MAIVADHLGLSWTELARELNFSVDETNQIRVENPNSLISQSFMLLKKWVTRDGKNATTDALTSVLTKINRIDIVTLLE | -0.755 ± 0.27 |
| MAIVADHLGLSWTELARELNFSVDEDNQIRVENPNSLISQSFMLLKKWVTRDGKNATTDALTSVLTKINRIDIVTLLE | -0.886 ± 0.16 |
